Two molecules from article PMC9588639 (Journal of thrombosis and haemostasis : JTH, 2022) can be followed below.

Common to all, as to assay: BLI
Assay [1] addresses mouse GPIbα LBD (mLBD, residues 1-290) (mouse).
The target of assay [2] is human GPIbα LBD (mature protein residues 1-290) (human).
Assay [3] addresses human GPIbα LBD (mature protein residues 1-290) W230L (human, UniProt P07359 17-306, W230L).

Sequence of mouse GPIbα LBD (mLBD, residues 1-290) (mouse) (O35930 whole entry, the tested form may be a part): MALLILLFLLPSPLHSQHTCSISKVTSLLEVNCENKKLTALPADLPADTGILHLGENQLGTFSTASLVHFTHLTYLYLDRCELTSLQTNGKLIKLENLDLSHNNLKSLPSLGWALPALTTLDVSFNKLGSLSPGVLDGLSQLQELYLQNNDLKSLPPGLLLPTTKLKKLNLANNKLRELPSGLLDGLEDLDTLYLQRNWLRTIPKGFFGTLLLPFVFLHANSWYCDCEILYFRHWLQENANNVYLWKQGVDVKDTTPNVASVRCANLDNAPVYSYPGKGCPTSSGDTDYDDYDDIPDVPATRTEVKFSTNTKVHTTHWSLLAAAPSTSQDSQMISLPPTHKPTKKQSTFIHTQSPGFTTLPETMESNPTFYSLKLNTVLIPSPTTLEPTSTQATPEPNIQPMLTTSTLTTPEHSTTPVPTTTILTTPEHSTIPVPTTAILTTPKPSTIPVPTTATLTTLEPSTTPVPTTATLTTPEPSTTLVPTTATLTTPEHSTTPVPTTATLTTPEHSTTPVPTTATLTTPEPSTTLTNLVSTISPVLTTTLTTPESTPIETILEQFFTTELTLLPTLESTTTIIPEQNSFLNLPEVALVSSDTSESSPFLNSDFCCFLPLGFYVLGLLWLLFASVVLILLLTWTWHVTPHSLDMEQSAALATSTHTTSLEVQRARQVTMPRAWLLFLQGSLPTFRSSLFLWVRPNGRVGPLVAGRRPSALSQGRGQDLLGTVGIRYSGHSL
Sequence of human GPIbα LBD (mature protein residues 1-290) W230L (P07359 17-306 W246L): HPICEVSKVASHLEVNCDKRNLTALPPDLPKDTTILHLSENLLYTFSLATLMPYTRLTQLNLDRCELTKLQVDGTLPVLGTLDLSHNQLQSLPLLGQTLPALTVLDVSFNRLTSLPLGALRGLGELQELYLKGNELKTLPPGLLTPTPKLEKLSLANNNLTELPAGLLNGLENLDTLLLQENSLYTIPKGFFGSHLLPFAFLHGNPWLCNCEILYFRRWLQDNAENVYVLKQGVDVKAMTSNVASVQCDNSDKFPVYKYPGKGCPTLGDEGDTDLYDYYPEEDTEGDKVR

In general, Kd refers to the free concentration of one partner at which half of the binding sites on the other are occupied at equilibrium, for simple one-to-one binding. As for “mouse tAIM-A1 (containing VWF residues 1261-1472) (from UniProt Q8CIZ8 1261-1472) (domain or fragment)”, the Kd in assay [1] was found to be 386 nM.

B1: recombinant mouse AIM-A1 protein (mouse VWF residues 1238-1493) (domain or fragment, UniProt Q8CIZ8 1238-1493, looked up)
chain: QEPGGLVAPPTDAPVSSTTPYVEDTPEPPLHNFYCSKLLDLVFLLDGSSMLSEAEFEVLKAFVVGMMERLHISQKRIRVAVVEYHDGSRAYLELKARKRPSELRRITSQIKYTGSQVASTSEVLKYTLFQIFGKIDRPEASHITLLLTASQEPPRMARNLVRYVQGLKKKKVIVIPVGIGPHASLKQIRLIEKQAPENKAFLLSGVDELEQRRDEIVSYLCDLAPEAPAPTQPPQVAHVTVSPGIAGISSPGPKRK
As for B1, the Kd is 515 nM in assay [2] and 1000 nM in assay [1]. The binding result in assay [3] is given as “binds”.
